Data set [1] has as its system human IVIg (an intravenous human immunoglobulin).
For data set [2], the target named is human IVIg (an intravenous human immunoglobulin). The source holds these as a separate data set.

With protease IdeZ (Genovis), in data set [1], the “enzymatic digestion of human IVIg in vitro, SDS-PAGE (10 ug IVIg per 1 Unit IdeZ, 37 C, 1 h)” value is “all the three proteases can effectively cleave human IVIg”.

B1: protease IdeE (protein)
chain: DDYQRNATEAYAKEVPHQITSVWTKGVTPLTPEQFRYNNEDVIHAPYLAHQGWYDITKAFDGKDNLLCGAATAGNMLHWWFDQNKTEIEAYLSKHPEKQKIIFNNQELFDLKAAIDTKDSQTNSQLFNYFRDKAFPNLSARQLGVMPDLVLDMFINGYYLNVFKTQSTDVNRPYQDKDKRGGIFDAVFTRGDQTTLLTARHDLKNKGLNDISTIIKQELTEGRALALSHTYANVSISHVINLWGADFNAEGNLEAIYVTDSDANASIGMKKYFVGINAHRHVAISAKKIEGENIGAQVLGLFTLSSGKDIWQKLSHHHHHH
Turning to B1, the “enzymatic digestion of human IVIg in vitro, SDS-PAGE (enzyme:IVIg 1:200 by mass, 37 C, 1 h)” value in data set [2] is given as “all the three proteases can effectively cleave human IVIg”.

B2: protease IdeS (protein)
chain: DSFSANQEIRYSEVTPYHVTSVWTKGVTPPANFTQGEDVFHAPYVANQGWYDITKTFNGKDDLLCGAATAGNMLHWWFDQNKDQIKRYLEEHPEKQKINFNGEQMFDVKEAIDTKNHQLDSKLFEYFKEKAFPYLSTKHLGVFPDHVIDMFINGYRLSLTNHGPTPVKEGSKDPRGGIFDAVFTRGDQSKLLTSRHDFKEKNLKEISDLIKKELTEGKALGLSHTYANVRINHVINLWGADFDSNGNLKAIYVTDSDSNASIGMKKYFVGVNSAGKVAISAKEIKEDNIGAQVLGLFTLSTGQDSWNQTNHHHHHHSSG
On to B2, for which the “enzymatic digestion of human IVIg in vitro, SDS-PAGE (enzyme:IVIg 1:200 by mass, 37 C, 1 h)” value in data set [2] is recorded as “all the three proteases can effectively cleave human IVIg”.
